Measured values reported in article PMC8673628.
Blank lines part the entries; values can stand above or below the substance they belong to.

Tests used:
[1] = target: Thioredoxin reductase from Sphingomonas sp. PAMC 26621 (SpTR) (Sphingomonas sp. PAMC 26621)
[2] = target: Thioredoxin reductase from Sphingomonas sp. PAMC 26621 (SpTR) (Sphingomonas sp. PAMC 26621); assay: SEC; Superdex 200 10/300 GL gel filtration in buffer D (50 mM sodium phosphate, pH 7.2, 100 mM NaCl); molecular weight against a protein standard mix

Km of SpTR for SpTrx F26A as substrate, 4°C (DTNB reduction at 412 nm, 50 nM SpTR, 0.1-10 μM Trx) [1]: 6.8 µM
Km of SpTR for SpTrx F26A as substrate, 30°C (DTNB reduction at 412 nm, 50 nM SpTR, 0.1-10 μM Trx) [1]: 6.41 µM
Substance: SpTrx F26A mutant (natural protein)

Km of SpTR for SpTrx as substrate, 4°C (DTNB reduction at 412 nm, 50 nM SpTR, 0.1-10 μM Trx) [1]: 1.1 µM
Km of SpTR for SpTrx as substrate, 30°C (DTNB reduction at 412 nm, 50 nM SpTR, 0.1-10 μM Trx) [1]: 0.63 µM
Substance: Thioredoxin from the psychrophilic Arctic bacterium Sphingomonas sp. PAMC 26621 (SpTrx), wild type (natural protein)

stoichiometry N [2]: 2
Substance: Thioredoxin reductase from Sphingomonas sp. PAMC 26621 (SpTR) (enzyme)

Second part, the substance before the results:

Substance: SpTrx F26W mutant (natural protein)
Km of SpTR for SpTrx F26W as substrate, 4°C (DTNB reduction at 412 nm, 50 nM SpTR, 0.1-10 μM Trx) [1]: 1.24 µM
Km of SpTR for SpTrx F26W as substrate, 30°C (DTNB reduction at 412 nm, 50 nM SpTR, 0.1-10 μM Trx) [1]: 0.66 µM

Substance: SpTrx F26Y mutant (natural protein)
Km of SpTR for SpTrx F26Y as substrate, 4°C (DTNB reduction at 412 nm, 50 nM SpTR, 0.1-10 μM Trx) [1]: 1.17 µM
Km of SpTR for SpTrx F26Y as substrate, 30°C (DTNB reduction at 412 nm, 50 nM SpTR, 0.1-10 μM Trx) [1]: 0.6 µM
